# Measurements published in patent US20170342144A1 (Sanofi, published 2017).
# T1: human TGFβ2 (human, UniProt P61812 303-414)
# T1 construct: also called TGFβ2 homodimer
# T1 sequence: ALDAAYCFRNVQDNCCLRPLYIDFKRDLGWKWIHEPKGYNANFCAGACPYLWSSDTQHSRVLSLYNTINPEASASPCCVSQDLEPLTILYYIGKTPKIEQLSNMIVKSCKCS
# T2: human TGFβ3 (human, UniProt P10600 301-412)
# T2 sequence: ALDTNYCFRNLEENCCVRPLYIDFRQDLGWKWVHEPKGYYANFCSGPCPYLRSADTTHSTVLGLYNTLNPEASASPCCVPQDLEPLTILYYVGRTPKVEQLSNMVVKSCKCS
# Tests used:
# Experiment in all cases: Biacore off-rate vs wt GC1008, 50 nM
# human TGFβ1 = biological target: T3, human TGFβ1 (human, UniProt P01137 279-390)
# T3 construct: also called TGFβ1 homodimer
# T3 sequence (P01137 279-390 limits assumed): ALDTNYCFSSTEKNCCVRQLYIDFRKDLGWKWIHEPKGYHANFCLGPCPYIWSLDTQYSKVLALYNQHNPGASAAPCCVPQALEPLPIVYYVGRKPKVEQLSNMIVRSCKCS
# From the text: (§1) Plasmids encoding either the GC1008 heavy chain or light chain were used as a template in PCR-based mutagenesis reactions. Mutations to the encoding DNA were made to create 155 single amino acid substitutions of the encoded heavy chain amino acid sequence and one single amino acid substitution of the encoded light chain amino acid sequence. A QuikChange® Lightning Site-Directed Mutagenesis kit (Agilent Technologies, Santa Clara Calif.) was used according to the manufacturer's instructions to create DNA mutations using a set of forward and reverse primers, either designed for a specific amino acid or for all 20 amino acids with a degenerate codon (NNK). After sequencing confirmation, identified mutant DNA was paired with a wild-type light or heavy chain DNA for transfection into an Expi293F™ host cell suspension (Life Techonologies Corp., Grand Island, N.Y.). At 4 days post-transfection, conditioned media (1 mL) was harvested and purified using a 1 mL Protein A PhyTip® column (PhyNexus, Inc., San Jose, Calif.) and a PureSpeed™ 12-channel pipette (Rainin Instrument LLC, Oakland, Calif.). Purified variant antibody samples were analyzed in duplicate on a Biacore® 3000 (GE Healthcare) at 50 nM concentrations, using the 100 RU level TGFβ1, 2, and 3 immobilized surfaces. The off-rate (kd) of the variants was divided by the kd of the wild-type control to obtain the fold change in the kd. […] A heat map was generated to visualize the results. Variants that completely lost affinity for TGFβ were shown in red without numbers.
# human TGFβ2 = biological target: T1, human TGFβ2
# From the text: as §1
# human TGFβ3 = biological target: T2, human TGFβ3
# From the text: as §1
Binder,kd var/kd wt (human TGFβ1),kd var/kd wt (human TGFβ2),kd var/kd wt (human TGFβ3)
"D56I (antibody, V domains shown, GC1008 IgG4 variant) VH: QVQLVQSGAEVKKPGSSVKVSCKASGYTFSSNVISWVRQAPGQGLEWMGGVIPIVIIANYAQRFKGRVTITADESTSTTYMELSSLRSEDTAVYYCASTLGLVLDAMDYWGQGTLVTVSS VL: ETVLTQSPGTLSLSPGERATLSCRASQSLGSSYLAWYQQKPGQAPRLLIYGASSRAPGIPDRFSGSGSGTDFTLTISRLEPEDFAVYYCQQYADSPITFGQGTRLEIK",1.6,1.5,1.4
"G101Y (antibody, V domains shown, GC1008 IgG4 variant) VH: QVQLVQSGAEVKKPGSSVKVSCKASGYTFSSNVISWVRQAPGQGLEWMGGVIPIVDIANYAQRFKGRVTITADESTSTTYMELSSLRSEDTAVYYCASTLYLVLDAMDYWGQGTLVTVSS VL: ETVLTQSPGTLSLSPGERATLSCRASQSLGSSYLAWYQQKPGQAPRLLIYGASSRAPGIPDRFSGSGSGTDFTLTISRLEPEDFAVYYCQQYADSPITFGQGTRLEIK",1.9,1.5,2
"D56T (antibody, V domains shown, GC1008 IgG4 variant) VH: QVQLVQSGAEVKKPGSSVKVSCKASGYTFSSNVISWVRQAPGQGLEWMGGVIPIVTIANYAQRFKGRVTITADESTSTTYMELSSLRSEDTAVYYCASTLGLVLDAMDYWGQGTLVTVSS VL: ETVLTQSPGTLSLSPGERATLSCRASQSLGSSYLAWYQQKPGQAPRLLIYGASSRAPGIPDRFSGSGSGTDFTLTISRLEPEDFAVYYCQQYADSPITFGQGTRLEIK",1.3,1.5,1.2
"I54P (antibody, V domains shown, GC1008 IgG4 variant) VH: QVQLVQSGAEVKKPGSSVKVSCKASGYTFSSNVISWVRQAPGQGLEWMGGVIPPVDIANYAQRFKGRVTITADESTSTTYMELSSLRSEDTAVYYCASTLGLVLDAMDYWGQGTLVTVSS VL: ETVLTQSPGTLSLSPGERATLSCRASQSLGSSYLAWYQQKPGQAPRLLIYGASSRAPGIPDRFSGSGSGTDFTLTISRLEPEDFAVYYCQQYADSPITFGQGTRLEIK",1.5,1.3,1.6
"I54H (antibody, V domains shown, GC1008 IgG4 variant) VH: QVQLVQSGAEVKKPGSSVKVSCKASGYTFSSNVISWVRQAPGQGLEWMGGVIPHVDIANYAQRFKGRVTITADESTSTTYMELSSLRSEDTAVYYCASTLGLVLDAMDYWGQGTLVTVSS VL: ETVLTQSPGTLSLSPGERATLSCRASQSLGSSYLAWYQQKPGQAPRLLIYGASSRAPGIPDRFSGSGSGTDFTLTISRLEPEDFAVYYCQQYADSPITFGQGTRLEIK",2.1,1.4,1.6
"D56S (antibody, V domains shown, GC1008 IgG4 variant) VH: QVQLVQSGAEVKKPGSSVKVSCKASGYTFSSNVISWVRQAPGQGLEWMGGVIPIVSIANYAQRFKGRVTITADESTSTTYMELSSLRSEDTAVYYCASTLGLVLDAMDYWGQGTLVTVSS VL: ETVLTQSPGTLSLSPGERATLSCRASQSLGSSYLAWYQQKPGQAPRLLIYGASSRAPGIPDRFSGSGSGTDFTLTISRLEPEDFAVYYCQQYADSPITFGQGTRLEIK",1.1,1.3,1
"I54M (antibody, V domains shown, GC1008 IgG4 variant) VH: QVQLVQSGAEVKKPGSSVKVSCKASGYTFSSNVISWVRQAPGQGLEWMGGVIPMVDIANYAQRFKGRVTITADESTSTTYMELSSLRSEDTAVYYCASTLGLVLDAMDYWGQGTLVTVSS VL: ETVLTQSPGTLSLSPGERATLSCRASQSLGSSYLAWYQQKPGQAPRLLIYGASSRAPGIPDRFSGSGSGTDFTLTISRLEPEDFAVYYCQQYADSPITFGQGTRLEIK",1.5,1.3,1.7
"D56N (antibody, V domains shown, GC1008 IgG4 variant) VH: QVQLVQSGAEVKKPGSSVKVSCKASGYTFSSNVISWVRQAPGQGLEWMGGVIPIVNIANYAQRFKGRVTITADESTSTTYMELSSLRSEDTAVYYCASTLGLVLDAMDYWGQGTLVTVSS VL: ETVLTQSPGTLSLSPGERATLSCRASQSLGSSYLAWYQQKPGQAPRLLIYGASSRAPGIPDRFSGSGSGTDFTLTISRLEPEDFAVYYCQQYADSPITFGQGTRLEIK",1.2,1.4,0.9
"I52V (antibody, V domains shown, GC1008 IgG4 variant) VH: QVQLVQSGAEVKKPGSSVKVSCKASGYTFSSNVISWVRQAPGQGLEWMGGVVPIVDIANYAQRFKGRVTITADESTSTTYMELSSLRSEDTAVYYCASTLGLVLDAMDYWGQGTLVTVSS VL: ETVLTQSPGTLSLSPGERATLSCRASQSLGSSYLAWYQQKPGQAPRLLIYGASSRAPGIPDRFSGSGSGTDFTLTISRLEPEDFAVYYCQQYADSPITFGQGTRLEIK",0.9,1.1,1.2
"D56L (antibody, V domains shown, GC1008 IgG4 variant) VH: QVQLVQSGAEVKKPGSSVKVSCKASGYTFSSNVISWVRQAPGQGLEWMGGVIPIVLIANYAQRFKGRVTITADESTSTTYMELSSLRSEDTAVYYCASTLGLVLDAMDYWGQGTLVTVSS VL: ETVLTQSPGTLSLSPGERATLSCRASQSLGSSYLAWYQQKPGQAPRLLIYGASSRAPGIPDRFSGSGSGTDFTLTISRLEPEDFAVYYCQQYADSPITFGQGTRLEIK",1.3,1.4,1
"I54A (antibody, V domains shown, GC1008 IgG4 variant) VH: QVQLVQSGAEVKKPGSSVKVSCKASGYTFSSNVISWVRQAPGQGLEWMGGVIPAVDIANYAQRFKGRVTITADESTSTTYMELSSLRSEDTAVYYCASTLGLVLDAMDYWGQGTLVTVSS VL: ETVLTQSPGTLSLSPGERATLSCRASQSLGSSYLAWYQQKPGQAPRLLIYGASSRAPGIPDRFSGSGSGTDFTLTISRLEPEDFAVYYCQQYADSPITFGQGTRLEIK",1.8,1.5,2
"D56V (antibody, V domains shown, GC1008 IgG4 variant) VH: QVQLVQSGAEVKKPGSSVKVSCKASGYTFSSNVISWVRQAPGQGLEWMGGVIPIVVIANYAQRFKGRVTITADESTSTTYMELSSLRSEDTAVYYCASTLGLVLDAMDYWGQGTLVTVSS VL: ETVLTQSPGTLSLSPGERATLSCRASQSLGSSYLAWYQQKPGQAPRLLIYGASSRAPGIPDRFSGSGSGTDFTLTISRLEPEDFAVYYCQQYADSPITFGQGTRLEIK",1.6,1.5,1.3
"E74C (antibody, V domains shown, GC1008 IgG4 variant) VH: QVQLVQSGAEVKKPGSSVKVSCKASGYTFSSNVISWVRQAPGQGLEWMGGVIPIVDIANYAQRFKGRVTITADCSTSTTYMELSSLRSEDTAVYYCASTLGLVLDAMDYWGQGTLVTVSS VL: ETVLTQSPGTLSLSPGERATLSCRASQSLGSSYLAWYQQKPGQAPRLLIYGASSRAPGIPDRFSGSGSGTDFTLTISRLEPEDFAVYYCQQYADSPITFGQGTRLEIK",1.7,0.8,0.7
"D56Q (antibody, V domains shown, GC1008 IgG4 variant) VH: QVQLVQSGAEVKKPGSSVKVSCKASGYTFSSNVISWVRQAPGQGLEWMGGVIPIVQIANYAQRFKGRVTITADESTSTTYMELSSLRSEDTAVYYCASTLGLVLDAMDYWGQGTLVTVSS VL: ETVLTQSPGTLSLSPGERATLSCRASQSLGSSYLAWYQQKPGQAPRLLIYGASSRAPGIPDRFSGSGSGTDFTLTISRLEPEDFAVYYCQQYADSPITFGQGTRLEIK",1.1,1.3,1
"D56K (antibody, V domains shown, GC1008 IgG4 variant) VH: QVQLVQSGAEVKKPGSSVKVSCKASGYTFSSNVISWVRQAPGQGLEWMGGVIPIVKIANYAQRFKGRVTITADESTSTTYMELSSLRSEDTAVYYCASTLGLVLDAMDYWGQGTLVTVSS VL: ETVLTQSPGTLSLSPGERATLSCRASQSLGSSYLAWYQQKPGQAPRLLIYGASSRAPGIPDRFSGSGSGTDFTLTISRLEPEDFAVYYCQQYADSPITFGQGTRLEIK",1.1,1.3,0.7
"I54L (antibody, V domains shown, GC1008 IgG4 variant) VH: QVQLVQSGAEVKKPGSSVKVSCKASGYTFSSNVISWVRQAPGQGLEWMGGVIPLVDIANYAQRFKGRVTITADESTSTTYMELSSLRSEDTAVYYCASTLGLVLDAMDYWGQGTLVTVSS VL: ETVLTQSPGTLSLSPGERATLSCRASQSLGSSYLAWYQQKPGQAPRLLIYGASSRAPGIPDRFSGSGSGTDFTLTISRLEPEDFAVYYCQQYADSPITFGQGTRLEIK",1.2,1.1,1.1
